Columns and labels:
[1] = biological target: CST with CTC1 R1193E/R1195E (human, UniProt Q2NKJ3;Q9H668;Q86WV5 1-1217;1-368;1-123, R1193E;R1195E;CTC1:); test: EMSA
[2] = biological target: CST with CTC1 K743E/R744E (human, UniProt Q2NKJ3;Q9H668;Q86WV5 1-1217;1-368;1-123, K743E;R744E;CTC1:); test: EMSA
[3] = biological target: CST with CTC1 K1164E/K1167E (human, UniProt Q2NKJ3;Q9H668;Q86WV5 1-1217;1-368;1-123, K1164E;K1167E;CTC1:); test: EMSA
[4] = biological target: CST with CTC1 V967A/S979A/H980A (human, UniProt Q2NKJ3;Q9H668;Q86WV5 1-1217;1-368;1-123, V967A;S979A;H980A;CTC1:); test: EMSA
Chain of CST with CTC1 V967A/S979A/H980A (Q2NKJ3 whole entry V967A/S979A/H980A, chain 1 of 3): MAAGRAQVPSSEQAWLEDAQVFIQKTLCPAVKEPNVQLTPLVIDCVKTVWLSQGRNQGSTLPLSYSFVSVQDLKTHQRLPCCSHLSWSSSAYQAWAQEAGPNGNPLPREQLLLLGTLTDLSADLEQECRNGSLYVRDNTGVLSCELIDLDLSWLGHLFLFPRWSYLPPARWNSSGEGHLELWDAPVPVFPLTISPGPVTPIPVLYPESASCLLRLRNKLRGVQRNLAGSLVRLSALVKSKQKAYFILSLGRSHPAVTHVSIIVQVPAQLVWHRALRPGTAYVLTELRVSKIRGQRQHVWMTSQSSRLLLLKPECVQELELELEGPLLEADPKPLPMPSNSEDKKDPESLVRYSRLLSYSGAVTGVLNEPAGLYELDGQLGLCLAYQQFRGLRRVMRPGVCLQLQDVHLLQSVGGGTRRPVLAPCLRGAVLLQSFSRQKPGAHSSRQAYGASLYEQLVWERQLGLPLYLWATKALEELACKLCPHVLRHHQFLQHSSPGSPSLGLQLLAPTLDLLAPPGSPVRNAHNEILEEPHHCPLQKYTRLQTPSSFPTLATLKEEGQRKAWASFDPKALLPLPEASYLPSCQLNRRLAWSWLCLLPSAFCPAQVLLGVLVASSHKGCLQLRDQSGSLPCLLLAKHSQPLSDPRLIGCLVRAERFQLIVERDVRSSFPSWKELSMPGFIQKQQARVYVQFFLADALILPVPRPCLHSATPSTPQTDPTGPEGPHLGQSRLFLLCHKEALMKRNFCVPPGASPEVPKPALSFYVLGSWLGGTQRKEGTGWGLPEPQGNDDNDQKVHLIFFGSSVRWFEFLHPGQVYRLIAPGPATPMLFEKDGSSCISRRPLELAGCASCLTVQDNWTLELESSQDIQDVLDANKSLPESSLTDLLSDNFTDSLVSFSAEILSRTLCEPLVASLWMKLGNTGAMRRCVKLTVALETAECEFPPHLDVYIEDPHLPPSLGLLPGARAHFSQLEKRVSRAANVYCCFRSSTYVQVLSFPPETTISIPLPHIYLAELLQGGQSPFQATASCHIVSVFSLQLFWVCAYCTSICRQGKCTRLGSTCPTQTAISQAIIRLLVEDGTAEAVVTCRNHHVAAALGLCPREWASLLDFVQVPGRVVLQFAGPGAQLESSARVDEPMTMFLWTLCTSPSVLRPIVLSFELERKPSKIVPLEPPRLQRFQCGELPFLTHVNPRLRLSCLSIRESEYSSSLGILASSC
Chain of CST with CTC1 V967A/S979A/H980A (Q9H668 whole entry, stated change not applied, chain 2 of 3): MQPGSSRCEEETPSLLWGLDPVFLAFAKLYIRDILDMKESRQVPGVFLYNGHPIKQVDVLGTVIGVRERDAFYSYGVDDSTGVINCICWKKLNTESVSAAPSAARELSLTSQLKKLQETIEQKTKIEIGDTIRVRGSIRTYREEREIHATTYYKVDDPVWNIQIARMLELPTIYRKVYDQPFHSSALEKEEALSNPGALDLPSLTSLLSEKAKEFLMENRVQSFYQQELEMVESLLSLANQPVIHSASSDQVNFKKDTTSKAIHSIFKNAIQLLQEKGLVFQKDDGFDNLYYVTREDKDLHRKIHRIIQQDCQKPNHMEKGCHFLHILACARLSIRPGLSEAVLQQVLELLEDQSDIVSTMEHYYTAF
Chain of CST with CTC1 V967A/S979A/H980A (Q86WV5 whole entry, stated change not applied, chain 3 of 3): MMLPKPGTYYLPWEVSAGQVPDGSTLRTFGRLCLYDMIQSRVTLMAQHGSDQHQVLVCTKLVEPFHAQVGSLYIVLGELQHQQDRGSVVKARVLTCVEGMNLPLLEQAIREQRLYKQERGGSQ

[5] = biological target: CST wild type (CTC1-STN1-TEN1) (human, UniProt Q2NKJ3;Q9H668;Q86WV5 1-1217;1-368;1-123); test: cryo-EM
Chain of CST wild type (CTC1-STN1-TEN1) (Q2NKJ3 whole entry, chain 1 of 3): as the sequence (Q2NKJ3 whole entry V967A/S979A/H980A, chain 1 of 3) above, with A967V, A979S, A980H counted along it
Chain of CST wild type (CTC1-STN1-TEN1) (Q9H668 whole entry, chain 2 of 3): as the sequence (Q9H668 whole entry, stated change not applied, chain 2 of 3) above
Chain of CST wild type (CTC1-STN1-TEN1) (Q86WV5 whole entry, chain 3 of 3): as the sequence (Q86WV5 whole entry, stated change not applied, chain 3 of 3) above

Chain of CST with CTC1 K743E/R744E (Q2NKJ3 whole entry K743E/R744E, chain 1 of 3): as the sequence (Q2NKJ3 whole entry V967A/S979A/H980A, chain 1 of 3) above, with K743E, R744E, A967V, A979S, A980H counted along it
Chain of CST with CTC1 K743E/R744E (Q9H668 whole entry, stated change not applied, chain 2 of 3): as the sequence (Q9H668 whole entry, stated change not applied, chain 2 of 3) above
Chain of CST with CTC1 K743E/R744E (Q86WV5 whole entry, stated change not applied, chain 3 of 3): as the sequence (Q86WV5 whole entry, stated change not applied, chain 3 of 3) above
Chain of CST with CTC1 K1164E/K1167E (Q2NKJ3 whole entry K1164E/K1167E, chain 1 of 3): as the sequence (Q2NKJ3 whole entry V967A/S979A/H980A, chain 1 of 3) above, with A967V, A979S, A980H, K1164E, K1167E counted along it
Chain of CST with CTC1 K1164E/K1167E (Q9H668 whole entry, stated change not applied, chain 2 of 3): as the sequence (Q9H668 whole entry, stated change not applied, chain 2 of 3) above
Chain of CST with CTC1 K1164E/K1167E (Q86WV5 whole entry, stated change not applied, chain 3 of 3): as the sequence (Q86WV5 whole entry, stated change not applied, chain 3 of 3) above
Chain of CST with CTC1 R1193E/R1195E (Q2NKJ3 whole entry R1193E/R1195E, chain 1 of 3): as the sequence (Q2NKJ3 whole entry V967A/S979A/H980A, chain 1 of 3) above, with A967V, A979S, A980H, R1193E, R1195E counted along it
Chain of CST with CTC1 R1193E/R1195E (Q9H668 whole entry, stated change not applied, chain 2 of 3): as the sequence (Q9H668 whole entry, stated change not applied, chain 2 of 3) above
Chain of CST with CTC1 R1193E/R1195E (Q86WV5 whole entry, stated change not applied, chain 3 of 3): as the sequence (Q86WV5 whole entry, stated change not applied, chain 3 of 3) above

TTAGGGTTAGGGTTAGGG (ssDNA) [3xTEL]: no binding [1]; binds [2]; no binding [3]. TTAGGGTTAGGGTTAGGG (ssDNA) [3xTEL]: no binding [4]; binds [5].

From paper doi:10.1101/815886
